Where “and” joins values, the source holds several entries; their conditions need not be identical. Identical values can stand only once. Like-named read-outs stand apart in the source and are kept apart here.
What was measured:
[1] = target: αβ-tubulin (unpolymerized, as used in gel filtration and analytical ultracentrifugation) (yeast) (UniProt P09733)
[2] = target: αβ-tubulin (unpolymerized, as used in gel filtration and analytical ultracentrifugation) (yeast) (UniProt P09733); assay: AUC
[3] = target: TOG1-TOG2 of Stu2p (yeast); assay: AUC
[4] = target: TOG1-TOG2 of Stu2p (yeast); assay: AUC; remark: listed apart in the source

Row | Substance | Kd [1] [nM] | stoichiometry N [2] | stoichiometry N [3] | stoichiometry N [4]
1 | TOG2 domain of Stu2p (domain or fragment) | 200 to 300 | 1 | – | –
2 | αβ-tubulin (unpolymerized, as used in gel filtration and analytical ultracentrifugation) (from UniProt P09733 1-447; P02557 1-457) (complex) | – | – | 1 | 1 and 2
